From the supplement of paper PMC9732359
± gives the uncertainty stated by the source.

Experiment: protein stability index of a GFP-peptide fusion (yeast GPS) (PSI 1-4); higher = more stable; sorted into four equal gates, so the index is relative within each strain
In short: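 The protein stability index of a peptide was calculated by multiplying its read frequency in each gate by that gate's number and adding the products. The peptides were tiled 17-residue stretches of yeast proteins, fused downstream of GFP on a Cherry-expressing plasmid and carried in yeast as a pooled library. Mid-log cultures in leucine-free medium were sorted into four equal gates by GFP/Cherry ratio, and each gate's plasmids were PCR-amplified and Illumina-sequenced.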

| Sequence | protein stability index (doa10∆) | protein stability index (pdr5∆) | protein stability index (san1∆) | protein stability index (ubr1∆) |
| --- | --- | --- | --- | --- |
| QLLLLSDERAKLELINR [LRP1] | 2.93 ± 0.092 | 3.06 ± 0.18 | 2.99 ± 0.11 | 2.99 ± 0.18 |
| DVHNGYILRYLHANGAS [COB] | 2.83 ± 0.096 | 2.37 ± 0.093 | 1.93 ± 0.11 | 2.5 ± 0.079 |
| PRLDAQAIKEASYVNIP [RPS0B] | 2.88 ± 0.041 | 2.84 ± 0.039 | 2.79 ± 0.044 | 2.52 ± 0.031 |
| KAEYVDQYDAERDFYHS [RPO31] | 2.75 ± 0.061 | 2.97 ± 0.1 | 3.23 ± 0.097 | 3.16 ± 0.06 |
| KTAFKPHELTESVLPAA [QCR2] | 2.36 ± 0.049 | 2.69 ± 0.051 | 2.62 ± 0.057 | 2.8 ± 0.038 |
| AIKWDGSSGGVIRMVVL [PRE3] | 2.56 ± 0.084 | 1.92 ± 0.071 | 2.71 ± 0.1 | 1.75 ± 0.049 |
| KIKLLTQATSEDGTSAS [RPC19] | 2.61 ± 0.065 | 2.85 ± 0.079 | 2.89 ± 0.062 | 3.11 ± 0.078 |
| KLWRKIARLYSCISISD [RRI2] | 2.87 ± 0.11 | 2.1 ± 0.075 | 2.69 ± 0.064 | 1.61 ± 0.038 |
| ARFRSIHILKVAEIEKT [RPL20A] | 1.2 ± 0.067 | 1.16 ± 0.051 | 1.14 ± 0.088 | 1.08 ± 0.048 |
| YALAAKDRFDIDEKSQF [RPN2] | 1.73 ± 0.09 | 2.1 ± 0.13 | 1.93 ± 0.17 | 2.66 ± 0.082 |
| VLALKVEDFLERRLQTQ [RPS9A] | 2.42 ± 0.14 | 2.86 ± 0.092 | 2.63 ± 0.072 | 2.83 ± 0.076 |
| SSGAGTVKLYLPEILNV [ECM29] | 1.45 ± 0.065 | 1.72 ± 0.055 | 2.02 ± 0.075 | 1.47 ± 0.066 |
| LRDSLADKIVDEFPELK [NUT2] | 2.76 ± 0.098 | 2.41 ± 0.069 | 1.97 ± 0.23 | 1.44 ± 0.051 |
| LQLLPLQKAVRGHVLQF [SNF2] | 1.22 ± 0.029 | 1.29 ± 0.041 | 1.23 ± 0.081 | 1.16 ± 0.026 |
| LLSGEDLTLDDISLKAD [YJL039C/NUP192] | 3.36 ± 0.052 | 3.39 ± 0.065 | 3.44 ± 0.038 | 3.23 ± 0.048 |
| IDGSTSHEERIEAIDEY [ISW2] | 3.26 ± 0.079 | 3.26 ± 0.11 | 3.06 ± 0.091 | 3.32 ± 0.047 |
| EIGPSPTLAGMAQRTLK [FAS2] | 2.392 ± 0.02 | 2.559 ± 0.021 | 2.546 ± 0.021 | 2.45 ± 0.015 |
| YGGSRCANCVKERIIRA [RPL34A] | 1.56 ± 0.061 | 2.81 ± 0.074 | 2.44 ± 0.082 | 1.57 ± 0.065 |
| DLSLNITLHPSFFGPRM [RPB7] | 2.25 ± 0.22 | 1.83 ± 0.1 | 1.7 ± 0.14 | 1.55 ± 0.074 |
| VEKVATAVLSTTARAKA [RPN2] | 3 ± 0.12 | 3.32 ± 0.086 | 2.93 ± 0.13 | 3.1 ± 0.081 |
| VSKADILLSHHRASPAD [POP5] | 2.34 ± 0.15 | 3.26 ± 0.16 | 3.18 ± 0.054 | 2.91 ± 0.1 |
| IKLNGSTLLCTDLESKS [SNU114] | 2.67 ± 0.06 | 2.73 ± 0.058 | 2.54 ± 0.056 | 2.82 ± 0.063 |
| SERIVDCIIRLPVKWET [FAS1] | 2.3 ± 0.089 | 1.97 ± 0.083 | 1.75 ± 0.12 | 2.62 ± 0.056 |
| ELVIRLEKDAADCQAEL [YIL149C/MLP2] | 2.93 ± 0.25 | 3.05 ± 0.18 | 3.18 ± 0.22 | 3.07 ± 0.22 |
| ITAVHVKIRATGGTRTK [RPS14A] | 1.58 ± 0.05 | 1.63 ± 0.041 | 1.82 ± 0.09 | 1.67 ± 0.042 |
| DKSIDTSSLQLYKFQNF [YML103C/NUP188] | 2.67 ± 0.064 | 3.05 ± 0.086 | 2.7 ± 0.055 | 2.99 ± 0.055 |
| FTGQGSQEQGMGMDLYK [FAS1] | 3.28 ± 0.12 | 3.4 ± 0.093 | 3.41 ± 0.1 | 3.4 ± 0.088 |

| Sequence | protein stability index (doa10∆) | protein stability index (pdr5∆) | protein stability index (san1∆) | protein stability index (ubr1∆) |
| --- | --- | --- | --- | --- |
| HWSVSFQAHEITSFLLS [NAS6] | 2.28 ± 0.056 | 1.92 ± 0.051 | 1.76 ± 0.08 | 2.02 ± 0.04 |
| KLFNKWSFEEVEVKDAS [RPS5] | 2.17 ± 0.087 | 1.77 ± 0.072 | 1.4 ± 0.15 | 1.67 ± 0.06 |
| ELIVSEEIPINSSEQES [SIR3] | 2.28 ± 0.054 | 2.24 ± 0.051 | 2.82 ± 0.053 | 2.18 ± 0.037 |
| VIQQDKYQKALHYLKKF [SRP72] | 1.61 ± 0.098 | 1.26 ± 0.079 | 1.2 ± 0.14 | 2.15 ± 0.1 |
| SVNPSNKPIKRMLSSIL [SWP82] | 2.95 ± 0.065 | 2.99 ± 0.044 | 2.93 ± 0.045 | 2.99 ± 0.037 |
| YSPKQDEQKHNENENSR [RPO21] | 2.69 ± 0.059 | 2.54 ± 0.064 | 2.63 ± 0.07 | 2.67 ± 0.056 |
| NPIDIKRRFGELMDRTG [RPP1] | 3.08 ± 0.12 | 3.19 ± 0.18 | 2.26 ± 0.26 | 2.9 ± 0.059 |
| INHEDGFIETTELLNIY [RPN3] | 2.97 ± 0.079 | 2.93 ± 0.1 | 3.09 ± 0.072 | 3.19 ± 0.066 |
| VRDKLDEYQAAVEQRKK [DPB4] | 3.42 ± 0.097 | 3.37 ± 0.066 | 3.31 ± 0.055 | 3.33 ± 0.073 |
| LLMSCPRLSHLSLTAVP [GRR1] | 1.9 ± 0.051 | 1.57 ± 0.054 | 1.63 ± 0.12 | 2.19 ± 0.059 |
| TSTITKYKQLLLKDDTY [RPN3] | 2.71 ± 0.12 | 2.73 ± 0.15 | 2.89 ± 0.073 | 2.9 ± 0.084 |
| RLLPINVNKKALGQDTE [MED11] | 2.84 ± 0.061 | 2.96 ± 0.062 | 2.89 ± 0.035 | 3.16 ± 0.052 |
| IPGEYVTYALSGYVRSR [RPS21A] | 2.18 ± 0.29 | – | 2.61 ± 0.21 | 2.92 ± 0.16 |
| LVGRKPAEHPFISAARY [RPC37] | 2.23 ± 0.14 | 1.86 ± 0.074 | 2.08 ± 0.15 | 2.54 ± 0.084 |
| INIAQMSACVGQQSVEG [RPO21] | – | – | 3.22 ± 0.17 | 3.07 ± 0.1 |
| SNDEKQKAQDVDVSMQD [RPN13] | 3.17 ± 0.091 | 3.27 ± 0.064 | 3.22 ± 0.041 | 3.31 ± 0.044 |
| LFVGTDRQLHEISTSKK [RPN14] | 2.91 ± 0.07 | 2.91 ± 0.076 | 2.9 ± 0.092 | 2.7 ± 0.092 |
| KRIHSVRTRGGNKKYRA [RPS8A] | 2.509 ± 0.024 | 2.621 ± 0.022 | 2.626 ± 0.025 | 2.591 ± 0.018 |
| SLNPALQEKISTELNNK [SWI1] | 2.8 ± 0.11 | 3.05 ± 0.097 | 3.29 ± 0.069 | 3.27 ± 0.083 |
| GPVRENDILVLMESERE [RPS28A] | 2.61 ± 0.23 | 3.4 ± 0.083 | 3.26 ± 0.14 | 2.81 ± 0.092 |
| KYHKEQFIKSNFEKILL [SRB8] | 2.21 ± 0.085 | 2.32 ± 0.047 | 1.95 ± 0.075 | 2.37 ± 0.057 |
| PAGKQVEISLVNGAKNL [FAS1] | 2.63 ± 0.27 | 3.23 ± 0.23 | – | 2.31 ± 0.19 |
| PAGMNETPKSNNSLSYH [ITC1] | 2.08 ± 0.14 | 3.22 ± 0.12 | 2.56 ± 0.14 | 3 ± 0.092 |
| INLTKVTQKDICILGIL [CSI1] | 2.78 ± 0.07 | 2.83 ± 0.07 | 3.03 ± 0.059 | 3.11 ± 0.15 |
| SPLQSSKSKQSFTQGEL [YMR129W/POM152] | 2.88 ± 0.055 | 2.8 ± 0.061 | 2.73 ± 0.055 | 2.95 ± 0.05 |
| ITISIHGKPTKGSSLAS [SSN8] | 2.24 ± 0.17 | 2.39 ± 0.086 | 2.43 ± 0.079 | 2.58 ± 0.041 |
| SPERFATLGIDPPKGIL [RPT1] | 2.74 ± 0.066 | 2.76 ± 0.058 | 2.42 ± 0.078 | 2.77 ± 0.045 |
